The assay has as its target T1, endogenous VDAC2 (voltage-dependent anion-selective channel protein 2) (human (endogenous in HONE1 and SUNE1)), P45880.
T1 chain: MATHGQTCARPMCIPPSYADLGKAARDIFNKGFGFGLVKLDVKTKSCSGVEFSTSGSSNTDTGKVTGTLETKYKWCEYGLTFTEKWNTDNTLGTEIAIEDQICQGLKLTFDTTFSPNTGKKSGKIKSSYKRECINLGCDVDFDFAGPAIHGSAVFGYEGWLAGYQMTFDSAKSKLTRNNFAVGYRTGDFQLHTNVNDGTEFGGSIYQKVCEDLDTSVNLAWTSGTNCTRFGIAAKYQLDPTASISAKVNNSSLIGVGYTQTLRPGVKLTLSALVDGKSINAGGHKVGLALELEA
Nature of the assay: cross-linking; NPC cells in PBS with 5 mM DSS, 37 °C, 30 min, quenched with 20 mM Tris-HCl; Western blot; 24 h after IR; WT and TRIM21-KO cells. As to conditions: remark: other sources report otherwise. (In general: In western blotting, separated proteins are transferred to a membrane and probed.)

B1: endogenous VDAC2 (voltage-dependent anion-selective channel protein 2), P45880 1-294 (natural protein)
chain: MATHGQTCARPMCIPPSYADLGKAARDIFNKGFGFGLVKLDVKTKSCSGVEFSTSGSSNTDTGKVTGTLETKYKWCEYGLTFTEKWNTDNTLGTEIAIEDQICQGLKLTFDTTFSPNTGKKSGKIKSSYKRECINLGCDVDFDFAGPAIHGSAVFGYEGWLAGYQMTFDSAKSKLTRNNFAVGYRTGDFQLHTNVNDGTEFGGSIYQKVCEDLDTSVNLAWTSGTNCTRFGIAAKYQLDPTASISAKVNNSSLIGVGYTQTLRPGVKLTLSALVDGKSINAGGHKVGLALELEA
Turning to B1, the stoichiometry N is > 3.

For orientation: stoichiometry N means a count of units in the complex or per binding partner.

The values above are taken from article PMC9935546.
